# Experimental data reported in the nanobody polyreactivity screen of Harvey et al. (2022).
# Assay: yeast display, Sf9 membrane polyspecificity reagent, FACS + sequencing; frameworks hold sequencing errors
# In short: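 A synthetic nanobody library was expressed on Saccharomyces cerevisiae BJ5465 by galactose induction for 36–48 hours. The library was stained for 1 hour at 4 °C with 10% biotinylated, detergent-solubilized Sf9 membrane reagent and enriched with streptavidin microbeads before FACS. Low and high (top ~1%) gates were set on anti-HA fluorescence for expression and streptavidin fluorescence for reagent binding, and each polyreactivity label reflects the gate of origin.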
row,Sequence,polyreactivity (PSR sort gate)
1,QVQLVESAGGLVQAGGSLRLSCAAYGSIIKRNAMGWYRQAPRKERQLVATSSSGDGSTRYADSVKWRFTISRDNAKNTVYLQMNSLKPEDTAVYYCALDFTYTYYRWKNPYRIGHDYWGHGTQVTVSS,low polyreactivity
2,QVQLVESGGGLVQAGGSLRLRCAASGSTLYGNAMGWYRQAPGKERDLVAVISRGGTTSYADSVKGRFTISRDNAKNTVYLQMKSLKPEDTAVYYCAVDVASLSTWPPAGRLVDYWGQGTQVTVSS,low polyreactivity
3,QVQLQEGGGLVQAGGSLRLSCPASGYISSRPAMGCYRQAPGKERAFVATIADGTSTYYADSVKCRFTISRDNAKNTVYLQMNSLKPEDTEVYYCAAAYNTEFYLSYWGQGTQVTVSS,high polyreactivity
4,QVQLVESGGGLVQAGGSLRLSCAASGFIFGYNALGWYRQAPAKERELVAAITWIGGTTYYADSVKGRFTISRDNAKNTVYLQLNSLKPEDTAVYYCARQRSFGRSSYSHRYDYWGQGNQVTVSS,high polyreactivity
5,QDQLVESGGGLVQAGGSLGLSCAASGSIFGFYDMGWSRQAPGKERELVAAITSGDSTHYADSVKGRFTISRDNAQNTVYVQMNSLKPVDTAVYYCAASAPYRYYRSAYYSWGQGTQVTVSS,low polyreactivity
6,QVQLVESGGGLGQAGGSLRLSCAASGSIFGYNVMGWYRQAPGKERELVAGITSGGSTNYADSVKGRFTISRDNAKNTVSLQMNSLKPEDTAVYYCNAEGVFGDGRSGFYWYDYWGEGTQVTVSS,low polyreactivity
7,QVQLVESGGGLVQAGGSLRLSCAASGRIFDLNAMGWYSQAPGKERELVAAITTNDGDTYYADSVKGRFTISRDTAKNTVYLQMNSLKPEDTAVYYCAAVSGSTSEYEYWGQGTEVTVSS,low polyreactivity
8,QVQLVESGGGLVQAGGSLRLSCAASGRTFRYNALGWYRPAPGKERELVASITSGGSTNYADSVKGRFTMSRDNAKNTVYLQMNSLKPEDTAVYYCASDERRPYWQHSIGSGRPFDYWGQGTQVTVSS,low polyreactivity
9,QVQLVESGGGLVQAGGSLRLSCASSGRTFLRYTMGWYRQAPGKERELVAAISYRGGTTYYADSVKGRFTISRDNGKNTVYLEMNSMKADETGVYYCAARNVGRTGSDFWGQGTQVTVSS,low polyreactivity
10,QVQLVESGGGVVQAGGSLRLSCAASGFIYRWNAMGLNRQAPGKERELVAAMSARGGSTYDADSVKGRFTIARDNAKNTVYLPMNSLKPEDTAVYYCARAKRVHTEYDYWGQGTQVTVSS,high polyreactivity
11,QFQLVDSGGGLVQAGGSLSLICAASGLIFYTYAMGWYRQAPGKERELVAAISRTRVSTYYADSVKGRFTISRDNAKNTVYLQMNSLKPEYTAVYYCATSRYLKLGYDYWGQGTQVTVSS,high polyreactivity
12,QVQLVESGGGLVQAGGSLRLSCAASGSILDYYVMGCSRQSPGKERELVAAIRGGGSTYYADSVKGRFTISRDNAKNTVYLQMNSLKPEDTAVYYCAKDSQTARDFDYWGQGTQVTVSS,low polyreactivity
13,QVQLGESGGGLVQAGGSLRLSCAASGSIFYGYAMGWYRHAPGKERELVAAITRDGSTNYADSVKGRFTISLDNAKNTVYLQMNSLKPEDTAVYYCAADTRSRRLSLVRRDYWGQGTQVTVSS,high polyreactivity
14,QVQLVESGGGLVQAGGRLRLSCAASGIIFGTYAMGWYRPAPGQERELVAAINTGGTTYYADSVKGRFTISRDNAKNTVYLQMNSLKPEDTAVYYCAAEFTRYRYYYHKRPMDYWGQGTQVTVSS,low polyreactivity
15,QVQLVESGGGLVQAGRSLRLSCAAYGYTFEFYAMGWYRQAPGKEREFVAGINSSGVTTYYADSVKGRFTIARDNAKYTVYLQMNSLKPVYSAVYYCAATDVVYTWFFLVYIPYDYWGQGTQVTVSS,low polyreactivity
16,QVQLVESGGGLVQAGGSLRLSCAASGLIFSVNAMGWYRQAPGKERELVAAITWSSGRTYYADSVKGRFTISRDNAKNSVYLQMISLKPEDTAVYYCAGVSYWYGLMYYWGQGTQVTVSS,high polyreactivity
17,QVQLVESGGGLVQAGGSLRLSCAASGSTFRTYSMGWYRQAPGKEREWVASITSSGASTYYADSVKGRFTISRDNAKNTVYLQMNSLKPEDTAVYYCAKGYPWYYRYKYDSWGQGTQVTVSS,high polyreactivity
18,QVQLVESGGGLVQAGGSLRISCDASGSIYSSNALGWYSQAPGKERELVAAISSSGSRTYYADSVKGRFTISRDKALITVYVQMNSLIPVDTAVDYWAAVIRYTRSYDYWGQGTQVTVSS,high polyreactivity
19,QVQLVESGGGLVQAGGSLRLSCAASGFTFYKYVMGWYRQAPGKERELVAAITQGGGSTYYADSVKGRFTISRDNAKNTVYLQMNSLKPEDTAVYYCNARNGYGIGYWGQGTQVTVSS,high polyreactivity
20,QVQLVESGGGLVQAGGSLRLSCAASGFTFYPYAMGWYRQAPGKERELVARITWSGGSTSYADSVKGRFTISRDNAKNTVYLQMNSLKPEDTAVYYCSKAYHHSEFDYWGLGTQVTVSS,high polyreactivity
21,QVQLVESGGGLVQAGGSLRLSCAASGSTYVSNAMGWYRQAPGKERELVAAISTGGGTCYADSVKGRFTISRDNAKNTVYLQMNSLKPEDTAVYYCNAVYVWWDGWGLYYWGQGTQVTVSS,low polyreactivity

row,Sequence,polyreactivity (PSR sort gate)
1,QVCLQESGGGLVQACGSLRLSCAASGTISRDIFMGWYRQAPGKEREFVATIAQGGITNYADSVKGRFTISRDNAKNTVYLQMNSVKPGDTAVYYCAARDGNCYWFYYWGQGTQVTVSS,high polyreactivity
2,QVQLVESGGGLVQAGGSLRLSCAASGRISSYYAMGWYRQAPGKDREFVARIRWSGGSTYYADSVKGRFTISRDNAKNTVYLQMNSLKPEDTAVYYCAAVPYAYGYTYDYWGQGTQVTVSS,high polyreactivity
3,QLQLVESGGGLVQAGGSLRLSCAASGSTFVYYAMGWYRPAPGKERELVAGITSSGGSTYYADSVKGRFTISRDNAKNTVYLQMNSLKPEDTAVYYCAAYVWVQQGRYYYWGQGTQVTVSS,low polyreactivity
4,QVQLVESGGGLVQAGGSLRLSCAASGSTFGRNAMGWYRQAPGKERELVAAISWSASRTYYADSVKGRFTISRDNAKNTVYLQMNSLIPDDTAVYYCAAEYDVGYFGYEYWGQGTQVTVSS,high polyreactivity
5,QVQHVESGGGLVQAGASLRLSCAASGLTFRSNAMGWYSQAPGKERELVAAISSSGGSTYYADSVKGRFTISRDNAQNTVYLQMNSLKPEDTAVYYCAAEDPGDQYDYWGQGTQVTVSS,high polyreactivity
6,QVQLVETGGGLVQAGGSRRLICAATGRIFYWYAMGCYRQAPGKERELVATISSAGTTYYADSVKGRFTISRDNAKNTVYLQMNSLKQEDTAVYYCAVPRVGLHGIGSDYWGQGTQVTVSS,high polyreactivity
7,QVQLVETGGGLVQAGGSLRLSCAASGRTYSTYAMGWYRQAPGKERDLVADISWRGAPTYYADSVKGRFTISRDNAKNTVYLQIISQKPEYTAVYYFAAAPYGYLRYEYWGLGTQVTVSS,high polyreactivity
8,QVQLVESGGGLVQAGGSLRLSCDASGSIFVKNAMGWYRQAPGKERELVAVITIRTATTYYADSVKGRFTISRDNAKNTVYLQMNSLKPEDTAVYYCASAKRQRGYLQREGNYWGQGTQVTVSS,low polyreactivity
9,QDQLVESGGGLVQAGGSLRLSCAASGSTFHLNALGWYRQSPGKERELVAAISRDGSSTSYADSEKGRFTISRDNAKNTVYLQMNSLKPEDTAVFYCAADDTLDRVPSTFIDGSPGYGYWGLGTQVTVSS,low polyreactivity
10,QVQLVESGGGLVQAGGSRRLSCAASGSTFYPYSMGWYRQAPGKESELVAAITWSGGRTYYADSVKGRFTISRDNANNTVYLQMNSLKPEDTAVYYCAADRPDGWVDYWGQGTQVTVSS,low polyreactivity
11,PVQLVESGGGLVQAGGSLRLSCAASGRIFAQYAMGWYRQAPGNERELVADISSGVRTYAASVKGRFTISRDNAKNTVSFQMNSLKPEDTAVYYFNAYYIIFTRNDYWGQGTQVTVSS,low polyreactivity
12,KVQLVESGGGLVQAGGSLRLSCAASGSIFYVNAMGWYRQAPGKERELVARITLSGTSTYYADSVKGRLTISRDNAKNTVYLQMNSLKPEDTAVYYCAATYWSWISLRFYWGQGTQVTVSS,low polyreactivity
13,QVQLVESGGGLVQAGGSLRLSCAASGSTYAGNAIGWSRQAPRKERELVAAIDSSTGSTYYADSVKGRFTISRDNAKNTVYLQMNSLNPEDTAVYYCNKTSFLVKLDYWGQGTQVTVSS,low polyreactivity
14,QVQLVESGGGLVQAGGSIRLSCAASGRIFYTYAMGWYRPAPGKERELVAAISSRTGSTYYADSVKGRFTISRDNAKNTVYLQMNSLKPEDTAVYYCNAYRLRYGYDYWGQGTQVTVSS,high polyreactivity
15,QVQLVESGGGIVQAGGSLRLSCAASGSILGYYVMGWYRQAPGIESELVAAISWSSGSTYYADSVKGRFTISRDNAKNTVYLQMNSLIPEDTAVYFCAAPIGDVYVGKGYDSWGQGTQVTVSS,low polyreactivity
16,QVQLVESGGGLVQAGGSLRLSCAASGGIFYRYAMGWYRQAPGKERELVAAITRSGANTYYADSVKGRFTISRDNAKNTVYLLMNSLKPEDTAVYYCNARSYLYYSGQYDYWGQGTQVTVSS,high polyreactivity
17,QVQLVESGGGLVQAGGSLRLSCAASGRIFNIYALGWYRQAPGKERELVAAISGSGSTYYADSVKGRFTISRDNAKNTVYLQMNSLKPEDTAVYYCAARSLVRYYHNANYYPYYYWGQGTQVTVSS,high polyreactivity
18,QVQLVESGGGLVQAGGSLRLSCAASGLIFVANTMGWYRQATGKERELVAAITSDGGSTSYADSVKGRFTISRDNAKNTVYLQMNSLKPEDTAVYHCAAEYGGSSAKYGYWGQGTQVTVSS,low polyreactivity
19,QVQLVESGGGLVQAGGSLRLSCAASGITFGYYAMGWYRQAPGKERELVATITDGGGTKYADSVKGRFTISRDNAKNTVYLQMNSLKPEDTAVYYCAAGLRHVYATEYDYWGQGTQVTVSS,low polyreactivity
20,QVQLVESGGGLVQAGGSLRLSCAASGFTFYYYAMGWYRQAPGKERELVAVITSGGNTYYADSVKGRFTISRDNAKNNVYLQMNSLKPEDTAVYYCAKDVSDPFYDPFEYWGQGTQVTVSS,low polyreactivity
